B1: A49 subunit of RNA polymerase I (natural protein, S. cerevisiae)
chain: MSVKRSVSEIEIESVQDQPSVAVGSFFKGFRAPSDTTFDLYKKKKSEKDEFVLHGENERLEYEGYTDSSSQASNQYVVGLFNPEKKSIQLYKAPVLVSKVVSKSSKNLRGPKIKSKSDTRPSALRNALGEAFGTKKAKKAIADLERNRIDSDKLTDSAIDIVDSVRTASKDLPTRAQLDEITSNDRPTPLANIDATDVEQIYPIESIIPKKELQFIRVSSILKEADKEKKLELFPYQNNSKYVAKKLDSLTQPSQMTKLQLLYYLSLLLGVYENRRVNNKTKLLERLNSPPEILVDGILSRFTVIKPGQFGRSKDRSYFIDPQNEDKILCYILAIIMHLDNFIVEITPLAHELNLKPSKVVSLFRVLGAIVKGATVAQAEAFGIPKSTAASYKIATMKVPFKLPEMTRRGRGPRR
B2: A135 subunit of RNA polymerase I (natural protein, S. cerevisiae)
chain: MSKVIKPPGQARTADFRTLERESRFINPPKDKSAFPLLQEAVQPHIGSFNALTEGPDGGLLNLGVKDIGEKVIFDGKPLNSEDEISNSGYLGNKLSVSVEQVSIAKPMSNDGVSSAVERKVYPSESRQRLTSYRGKLLLKLKWSVNNGEENLFEVRDCGGLPVMLQSNRCHLNKMSPYELVQHKEESDEIGGYFIVNGIEKLIRMLIVQRRNHPMAIIRPSFANRGASYSHYGIQIRSVRPDQTSQTNVLHYLNDGQVTFRFSWRKNEYLVPVVMILKALCHTSDREIFDGIIGNDVKDSFLTDRLELLLRGFKKRYPHLQNRTQVLQYLGDKFRVVFQASPDQSDLEVGQEVLDRIVLVHLGKDGSQDKFRMLLFMIRKLYSLVAGECSPDNPDATQHQEVLLGGFLYGMILKEKIDEYLQNIIAQVRMDINRGMAINFKDKRYMSRVLMRVNENIGSKMQYFLSTGNLVSQSGLDLQQVSGYTVVAEKINFYRFISHFRMVHRGSFFAQLKTTTVRKLLPESWGFLCPVHTPDGSPCGLLNHFAHKCRISTQQSDVSRIPSILYSLGVAPASHTFAAGPSLCCVQIDGKIIGWVSHEQGKIIADTLRYWKVEGKTPGLPIDLEIGYVPPSTRGQYPGLYLFGGHSRMLRPVRYLPLDKEDIVGPFEQVYMNIAVTPQEIQNNVHTHVEFTPTNILSILANLTPFSDFNQSPRNMYQCQMGKQTMGTPGVALCHRSDNKLYRLQTGQTPIVKANLYDDYGMDNFPNGFNAVVAVISYTGYDMDDAMIINKSADERGFGYGTMYKTEKVDLALNRNRGDPITQHFGFGNDEWPKEWLEKLDEDGLPYIGTYVEEGDPICAYFDDTLNKTKIKTYHSSEPAYIEEVNLIGDESNKFQELQTVSIKYRIRRTPQIGDKFSSRHGQKGVCSRKWPTIDMPFSETGIQPDIIINPHAFPSRMTIGMFVESLAGKAGALHGIAQDSTPWIFNEDDTPADYFGEQLAKAGYNYHGNEPMYSGATGEELRADIYVGVVYYQRLRHMVNDKFQVRSTGPVNSLTMQPVKGRKRHGGIRVGEMERDALIGHGTSFLLQDRLLNSSDYTQASVCRECGSILTTQQSVPRIGSISTVCCRRCSMRFEDAKKLLTKSEDGEKIFIDDSQIWEDGQGNKFVGGNETTTVAIPFVLKYLDSELSAMGIRLRYNVEPK

Columns and labels:
[1] = target: B2; experiment: cross-linking
[2] = target: A190 subunit of RNA polymerase I (S. cerevisiae, UniProt P10964 1-1664); experiment: cross-linking
A190 subunit of RNA polymerase I, sequence (P10964 whole entry): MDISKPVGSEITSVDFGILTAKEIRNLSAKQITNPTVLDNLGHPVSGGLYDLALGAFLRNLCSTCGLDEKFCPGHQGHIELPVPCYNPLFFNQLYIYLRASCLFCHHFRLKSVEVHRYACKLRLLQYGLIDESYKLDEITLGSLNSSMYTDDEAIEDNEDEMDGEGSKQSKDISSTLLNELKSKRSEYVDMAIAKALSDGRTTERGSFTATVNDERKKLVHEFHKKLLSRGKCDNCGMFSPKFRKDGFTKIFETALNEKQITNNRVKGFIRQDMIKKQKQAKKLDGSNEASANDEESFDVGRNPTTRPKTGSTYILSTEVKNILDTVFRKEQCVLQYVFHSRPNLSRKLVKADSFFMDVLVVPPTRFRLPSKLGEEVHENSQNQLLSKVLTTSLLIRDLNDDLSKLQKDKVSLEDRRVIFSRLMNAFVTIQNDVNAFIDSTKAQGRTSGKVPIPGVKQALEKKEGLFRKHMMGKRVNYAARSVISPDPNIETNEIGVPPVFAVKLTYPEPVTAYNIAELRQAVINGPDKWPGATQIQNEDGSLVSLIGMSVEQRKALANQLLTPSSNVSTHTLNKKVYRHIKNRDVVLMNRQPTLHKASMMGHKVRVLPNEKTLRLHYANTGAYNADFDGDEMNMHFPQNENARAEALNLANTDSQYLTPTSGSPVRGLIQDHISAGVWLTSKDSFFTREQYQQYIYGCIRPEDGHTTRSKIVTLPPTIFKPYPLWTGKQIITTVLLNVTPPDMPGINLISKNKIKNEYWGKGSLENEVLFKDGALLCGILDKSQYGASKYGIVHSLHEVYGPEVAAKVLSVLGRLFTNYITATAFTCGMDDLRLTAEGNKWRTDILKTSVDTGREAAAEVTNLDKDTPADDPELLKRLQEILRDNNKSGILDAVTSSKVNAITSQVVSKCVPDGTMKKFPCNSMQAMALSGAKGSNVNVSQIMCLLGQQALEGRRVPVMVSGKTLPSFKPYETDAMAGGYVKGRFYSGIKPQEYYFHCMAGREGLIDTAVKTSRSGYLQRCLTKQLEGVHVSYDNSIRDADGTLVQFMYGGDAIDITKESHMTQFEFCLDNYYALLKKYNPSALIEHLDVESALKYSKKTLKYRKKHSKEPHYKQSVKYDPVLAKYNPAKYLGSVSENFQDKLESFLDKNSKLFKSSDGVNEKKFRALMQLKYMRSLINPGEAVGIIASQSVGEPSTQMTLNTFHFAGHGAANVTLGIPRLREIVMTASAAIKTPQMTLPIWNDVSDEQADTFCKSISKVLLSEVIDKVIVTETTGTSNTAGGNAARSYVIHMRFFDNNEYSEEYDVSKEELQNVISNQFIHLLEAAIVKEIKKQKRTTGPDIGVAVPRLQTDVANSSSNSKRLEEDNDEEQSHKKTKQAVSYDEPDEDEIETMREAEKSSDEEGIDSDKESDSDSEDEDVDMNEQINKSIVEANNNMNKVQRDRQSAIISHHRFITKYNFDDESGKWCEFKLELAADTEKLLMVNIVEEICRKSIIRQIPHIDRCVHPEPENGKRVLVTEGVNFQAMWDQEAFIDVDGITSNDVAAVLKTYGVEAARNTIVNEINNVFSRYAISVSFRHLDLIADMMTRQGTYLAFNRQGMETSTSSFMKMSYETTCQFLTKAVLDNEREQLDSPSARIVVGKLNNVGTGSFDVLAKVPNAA

| Binder | binding result [1] | binding result [2] |
| --- | --- | --- |
| B1 | binds | binds |
| B2 | – | binds |
